Results on three molecules are retold here after patent publication US20200087400A1 (EUREKA THERAPEUTICS, published 2020).

Numbering of substitutions follows the chain as printed.

First the molecules themselves.
B1: PSA146/HLA-A*02:01-specific scFv phage clone #13 (scFv, V domains shown)
VH: QVQLVQSGAEVKKPGASVKVSCKASGYTFTSYYMHWVRQAPGQGLEWMGGFDPEDGETIYAQKFQGRVTMTEDTSTDTAYMGLSSLRSEDTAVYYCARYSYDYWGQGTLVTVSS
VL: QAVVTQEPSLTVSPGGTVTLTCASSTGAVTSGYYPNWFQQKPGQAPRALIYSTSNKHSWTPARFSGSLLGGKAALTLSGVQPEDEAEYYCLLYYGGAYVFGTGTKVTVLG
B2: PSA146/HLA-A*02:01-specific scFv phage clone #14 (scFv, V domains shown)
VH: B1 VH with Q1E, S31G, Y33F, G82E, Y103L
VL: QTVVTQEPSLTVSPGGTVTLTCASSTGAVTSGYYPNWFQQKPGQAPRALIYSTSNKHSWTPARFSGSLLGGKAALTLSGVQPEDEAEYYCLLYYGGAQWVFGGGTKLTVLG
B3: PSA146/HLA-A*02:01-specific scFv phage clone #12 (scFv, V domains shown)
VH: QMQLVQSGSEVKKPGASVKVSCKASGYTFTSYGISWVRQAPGQGLEWMGWISAYNGNTDYVQKLQGRVTMTTDTSTNTAYMELGSLGSDDTAVYYCARTNYNKYDIWGQGTLVTVSS
VL: QSVLTQPPSVSGAPGQRVTISCTGSSSNIGAGYDVHWYQQLPGTAPKLLIYGNSNRPSGVPDRFSGSKSGTSASLAITGLQAEDEADYYCQSYDSSLSEVFGTGTKVTVLG

The target in one experiment is T1, Bio-P19 member A2E-4 (chain 2 carries a C-terminal BirA substrate peptide (BSP), enzymatically biotinylated; the BSP letters are not given in the patent and are left out).
T1 construct: also called biotinylated control peptide A2E-4/HLA-A*02:01 monomer
As to the kind of experiment: phage ELISA, streptavidin plate, anti-M13-HRP. The protocol:
(§1) Individual phage clones from enriched phage display panning pools against PSA146/HLA-A*02:01 complex were incubated in the coated plates. Binding of the phage clones was detected by HRP-conjugated anti-M13 antibodies and developed using HRP substrate. The absorbance was read at 450 nm. […] Then, unique antibody clones were identified through DNA sequencing of ELISA-positive clones. […] T2 cells loaded with different peptides and β2M were first stained with purified scFv phage clones, followed by staining with a mouse anti-M13 mAb, and finally R-PE conjugated horse anti-mouse IgG from Vector Labs. Each step of the staining was performed for between 30-60 minutes on ice and the cells were washed twice between stainings. All 16 clones recognized PSA146-loaded T2 cells specifically. FIG. 3 provides examples of PSA146/HLA-A*02:01 specific phage clone binding to peptide-loaded T2 cells through FACS.
As to B1, the binding result was “no binding”.
As to B2, the binding result is “no binding”.
Consider B3, for which the binding result is “no binding”.

The next experiment concerns the target T2, Bio-P19 member A2E-19 (chain 2 carries a C-terminal BirA substrate peptide (BSP), enzymatically biotinylated; the BSP letters are not given in the patent and are left out).
T2 construct: also called biotinylated control peptide A2E-19/HLA-A*02:01 monomer
The experiment is described as follows: phage ELISA, streptavidin plate, anti-M13-HRP. The method, then: as §1
On to B1, for which the binding result is “no binding”.
With B2, the binding result was “no binding”.
On the same count and under the same terms, next, B3: “no binding”.

The target in another experiment is T3, Bio-P19 member A2E-9 (chain 2 (heavy): C-terminal BirA substrate peptide, biotinylated there by BirA; tag letters not given, left out).
T3 construct: also called biotinylated control peptide A2E-9/HLA-A*02:01 monomer; not shown: BirA substrate peptide (BSP) tag at the C-terminus of the heavy chain
The experiment is described as follows: phage ELISA, streptavidin plate, anti-M13-HRP. The method, then: as §1
As for B1, the binding result was “no binding”.
As for B2, the binding result was “no binding”.
Take B3: the binding result is reported as “no binding”.

The next experiment concerns the target T4, control peptide A2E-21/HLA-A*02:01 complex on T2 cells (member of the P19 mixture) (human).
T4 construct: Loaded on T2 cells as part of the mixture of 19 control peptides
The experiment is described as follows: flow cytometry, phage on T2 cells. The method, then: as §1
B1: the binding result is given as “no binding”.
B2: the binding result is on record as “no binding”.
On the same count and under the same terms, next, B3: “no binding”.

The target of a further experiment is T5, control peptide A2E-1/HLA-A*02:01 complex on T2 cells (member of the P19 mixture) (human).
T5 construct: Loaded on T2 cells as part of the mixture of 19 control peptides
The experiment is described as follows: flow cytometry, phage on T2 cells. The protocol: as §1
Take B1: the binding result is recorded as “no binding”.
As to B2, the binding result is listed as “no binding”.
On to B3, for which the binding result is listed as “no binding”.

The next experiment addresses T6, control peptide A2E-5/HLA-A*02:01 complex on T2 cells (member of the P19 mixture) (human).
T6 construct: Loaded on T2 cells as part of the mixture of 19 control peptides
As to the kind of experiment: flow cytometry, phage on T2 cells. The method, then: as §1
For the molecule B1, the binding result is given as “no binding”.
On to B2, for which the binding result is recorded as “no binding”.
Turning to B3, the binding result is “no binding”.

In a further experiment the target is T7, control peptide A2E-16/HLA-A*02:01 complex on T2 cells (member of the P19 mixture) (human).
T7 construct: Loaded on T2 cells as part of the mixture of 19 control peptides
The experiment is described as follows: flow cytometry, phage on T2 cells. The method, then:
as §1
For the molecule B1, the binding result is listed as “no binding”.
Turning to B2, the binding result is listed as “no binding”.
As for B3, the binding result is recorded as “no binding”.

For another experiment, the target named is T8, control peptide A2E-10/HLA-A*02:01 complex on T2 cells (member of the P19 mixture) (human).
T8 construct: Loaded on T2 cells as part of the mixture of 19 control peptides
As to the kind of experiment: flow cytometry, phage on T2 cells. The protocol: as §1
For B1, the binding result was “no binding”.
In the case of B2, the binding result is reported as “no binding”.
Same read-out and setting: next, B3: “no binding”.

Another experiment has as its target T9, control peptide A2E-4/HLA-A*02:01 complex on T2 cells (member of the P19 mixture) (human).
T9 construct: Loaded on T2 cells as part of the mixture of 19 control peptides
The experiment is described as follows: flow cytometry, phage on T2 cells. The protocol: as §1
For B1, the binding result is on record as “no binding”.
For the molecule B2, the binding result was “no binding”.
On to B3, for which the binding result is “no binding”.

The target in a further experiment is T10, control peptide A2E-15/HLA-A*02:01 complex on T2 cells (member of the P19 mixture) (human).
T10 construct: Loaded on T2 cells as part of the mixture of 19 control peptides
As to the kind of experiment: flow cytometry, phage on T2 cells. The protocol: as §1
For the molecule B1, the binding result is listed as “no binding”.
As for B2, the binding result is on record as “no binding”.
Regarding B3, the binding result is “no binding”.

The target in a further experiment is T11, control peptide A2E-3/HLA-A*02:01 complex on T2 cells (member of the P19 mixture) (human).
T11 construct: Loaded on T2 cells as part of the mixture of 19 control peptides
As to the kind of experiment: flow cytometry, phage on T2 cells. The method, then: as §1
For B1, the binding result was “no binding”.
Take B2: the binding result is reported as “no binding”.
On the same count and under the same terms, for B3 the value was “no binding”.

In another experiment the target is T12, control peptide A2E-23/HLA-A*02:01 complex on T2 cells (member of the P19 mixture) (human).
T12 construct: Loaded on T2 cells as part of the mixture of 19 control peptides
As to the kind of experiment: flow cytometry, phage on T2 cells. The method, then: as §1
B1: the binding result was “no binding”.
With B2, the binding result was “no binding”.
In the case of B3, the binding result is listed as “no binding”.

The target of the next experiment is T13, control peptide A2E-9/HLA-A*02:01 complex on T2 cells (member of the P19 mixture) (human).
T13 construct: Loaded on T2 cells as part of the mixture of 19 control peptides
The experiment is described as follows: flow cytometry, phage on T2 cells. The method, then: as §1
For the molecule B1, the binding result is “no binding”.
With B2, the binding result was “no binding”.
Turning to B3, the binding result is listed as “no binding”.

A further experiment addresses T14, control peptide A2E-19/HLA-A*02:01 complex on T2 cells (member of the P19 mixture) (human).
T14 construct: Loaded on T2 cells as part of the mixture of 19 control peptides
As to the kind of experiment: flow cytometry, phage on T2 cells. The protocol:
as §1
On to B1, for which the binding result was “no binding”.
Same read-out and setting: for B2 the value was “no binding”.
For the molecule B3, the binding result is given as “no binding”.

The target in a further experiment is T15, control peptide A2E-14/HLA-A*02:01 complex on T2 cells (member of the P19 mixture) (human).
T15 construct: Loaded on T2 cells as part of the mixture of 19 control peptides
The experiment is described as follows: flow cytometry, phage on T2 cells. The protocol: as §1
As to B1, the binding result is reported as “no binding”.
Same read-out and setting: for B2 the value was “no binding”.
Regarding B3, the binding result is “no binding”.

The target in another experiment is T16, control peptide A2E-11/HLA-A*02:01 complex on T2 cells (member of the P19 mixture) (human).
T16 construct: Loaded on T2 cells as part of the mixture of 19 control peptides
The experiment is described as follows: flow cytometry, phage on T2 cells. The protocol:
as §1
Take B1: the binding result is recorded as “no binding”.
As to B2, the binding result was “no binding”.
For B3, the binding result is on record as “no binding”.

The next experiment addresses T17, control peptide A2E-17/HLA-A*02:01 complex on T2 cells (member of the P19 mixture) (human).
T17 construct: Loaded on T2 cells as part of the mixture of 19 control peptides
As to the kind of experiment: flow cytometry, phage on T2 cells. The protocol:
as §1
On to B1, for which the binding result is given as “no binding”.
In the case of B2, the binding result is on record as “no binding”.
B3: the binding result was “no binding”.

A further experiment addresses T18, control peptide A2E-6/HLA-A*02:01 complex on T2 cells (member of the P19 mixture) (human).
T18 construct: Loaded on T2 cells as part of the mixture of 19 control peptides
The experiment is described as follows: flow cytometry, phage on T2 cells. The protocol: as §1
For B1, the binding result is “no binding”.
On the same count and under the same terms, next, B2: “no binding”; B3: “no binding”.

Another experiment has as its target T19, control peptide A2E-2/HLA-A*02:01 complex on T2 cells (member of the P19 mixture) (human).
T19 construct: Loaded on T2 cells as part of the mixture of 19 control peptides
The experiment is described as follows: flow cytometry, phage on T2 cells. The method, then:
as §1
Consider B1, for which the binding result is recorded as “no binding”.
As for B2, the binding result is on record as “no binding”.
As to B3, the binding result is reported as “no binding”.

For the next experiment, the target named is T20, control peptide A2E-13/HLA-A*02:01 complex on T2 cells (member of the P19 mixture) (human).
T20 construct: Loaded on T2 cells as part of the mixture of 19 control peptides
As to the kind of experiment: flow cytometry, phage on T2 cells. The protocol: as §1
On to B1, for which the binding result is on record as “no binding”.
Same read-out and setting: for B2 the value was “no binding”; for B3, “no binding”.

The next experiment concerns the target T21, control peptide A2E-8/HLA-A*02:01 complex on T2 cells (member of the P19 mixture) (human).
T21 construct: Loaded on T2 cells as part of the mixture of 19 control peptides
The experiment is described as follows: flow cytometry, phage on T2 cells. The protocol: as §1
Take B1: the binding result is “no binding”.
Turning to B2, the binding result is recorded as “no binding”.
With B3, the binding result is reported as “no binding”.

The target in the next experiment is T22, control peptide A2E-7/HLA-A*02:01 complex on T2 cells (member of the P19 mixture) (human).
T22 construct: Loaded on T2 cells as part of the mixture of 19 control peptides
The experiment is described as follows: flow cytometry, phage on T2 cells. The protocol: as §1
As to B1, the binding result is listed as “no binding”.
Still for that read-out and setting: next, B2: “no binding”; B3: “no binding”.

For another experiment, the target named is T23, HLA-A*02:01 on T2 cells with no peptide loaded (human).
T23 construct: TAP-deficient T2 cells, no peptide loaded from outside; also called T2 cells without peptide loading
As to the kind of experiment: flow cytometry, phage on T2 cells, anti-M13 + R-PE anti-mouse IgG. The method, then: as §1
For the molecule B1, the binding result is “no binding”.
On the same count and under the same terms, for B2 the value was “no binding”; for B3, “no binding”.

Another experiment has as its target T24, PSA 146-154 peptide/HLA-A*02:01 complex on the cell surface (human).
T24 construct: also called PSA146/HLA-A*02:01; PSA146-loaded T2 cells
The description is as above. The method, then:
as §1
As for B1, the binding result is recorded as “binds”.
Turning to B2, the binding result is reported as “binds”.
The same measure, in the same setting: next, B3: “binds”.
